Experimental data from a protein production outcome set (Wang et al. 2014).

Test: label from the status in PepcDB records
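Note: failed if final PepcDB status was selected cloned or expressed and not failed if soluble or beyond.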

## MTQASRSEFRAELLSRIPRWYSPWGHLLFPAVAGLAIAAFALSRIEDLAAWQLAAVPAFLVFGNAVEWTAHRGMLHRRLRFAEVFYVRHTPQHHAVYVADDMAMRDWRELKLVLLPAYGVLAILAVTSPLTLAFLWLRQPNLAALWVASVVLYVLSYEWLHLAYHLPADRWLARTALVRTLRRHHQLHHAPHLMNRWNFNVTVPLWDWVRGTLYPAPAPGSRPAAQPTGAAGRAP
  protein production: failed

## NKYNKIANELIKIIGEDNIISITHCATRLRVMVKDREIINDKKVEKVDEVKGVFFTSGQYQIILGTGIVNKVYAEVEKMGLKTLSKKEQDEL
  protein production: not failed

## MNHTSDTALLIVNLGTPEAPTAAAVRRYLGEFLSDRRVVSIPPLFWKPLLHMVILPIRGPRSASKYAKVWLQEGSPLSVYTRRIAEGLTQHLPDWRVAWAMRYGAPALTKALDALQAQQVRRIVILPLYPQYSTTTTASVQDVVEAWCKRTPQVQVECIQDYAEDPAWVAAVAASIRRHWQAHGRSEKLMFSFHGLPQRVANNGDPYPQRCQVSASLIAAALNLNESEWVLGYQSRFGAERWLQPYAEPTLWALAESGIRRFDLVCPGFSVDCLETLEEVALGFSETLAARGATMRYIPCLNDDPAHVQALAGLAQRALP
  protein production: failed

## MRVLITGATGGLGGAFARALKGHDLLLSGRRAGALAELAREVGARALPADLADELEAKALLEEAGPLDLLVHAVGKAGRASVREAGRDLVEEMLAAHLLTAAFVLKHARFQKGARAVFFGAYPRYVQVPGFAAYAAAKGALEAYLEAARKELLREGVHLVLVRLPAVATGLWAPLGGPPKGALSPEEAARKVLEGLFREPVPALLEV
  protein production: not failed

## EKAEDCWELQISPELLAHGRQKILDLLNEGSARDLRSLQRIGPKKAQLIVGWRELHGPFSQVEDLERVEGITGKQMESFLKANILGLAAGQ
  protein production: not failed

## MGFLHKLWDETVAGPTPDNGLGKLRKHDSLSTVRSSPPSLSSDQVTRSIMVTKGNNNVRGLRKLKMDPDSPTCSSSNPGTPLTPGTPCYALGPFTAGKIPSSGEDDAASLTTYEWIVINALDR
  protein production: failed

## MRHITTHDAPATGLRSIADTSWHVRGACHGMDIEDADAVFFPGPRDHEEIAEAKELCGWCPVRRACLDFALENVLKEGVWGGLTEAERRPL
  protein production: failed

## MRCCHSGKSYRLWGHRSSQRHRSGETGRGRLRIDQPGAASRRGSRALSWCGCHHVPCPDVTGAGRVRATCRRSFVHERNPHLHMLDAFHRGDVGLYTGTMTAPALLSREAELSRRDLIALESRLREAVSRFLPFKAYSLYFPREAETVEPLWLPGEGRLLLPLIHGGALLAVFVARGVPRRIVRSLMPAFPGLLALCMENLALYKAGRTDALTGLSTRQHLVERMAREADHVRTCFANPPEGEGDLGAPLHRACMGLVVVRLASLRQVARDHGYTFADRLTTELARELSALAPEQALAARTGDYEFALLVPAAASGVCRKLAEEAVQRLSAVSLRCGLTEKAVRVCVSAGYAVYPRDMEGALFERDMAEQARVLLRKARLAAAVAGEGEGSEGPGVMGFARILAEGGAVVETHPLSRVMVNLGRSMNAREGQRFSVWSVAYPVRGGTHEPRQPLYKGEVVLLEVREDRSVAEILHLGDPTWPIEPGDRLTLLPEEKGGDARRDASGVQVDPLTGLYRHGDFLARWSEAREGCDCFALALVRFSDDGRDPEGRASHPEQLMAEAAQLCRDHFGAETLGGRYGLNSIVFFHPDMTCDAARESYRQLCDLLSKRLRIDAAVGVGCHPFLAYRRADALENALKALEYALLLPEPRVGIFDSLALNISADKRFSLGDTFGAIEEYKTALLADEGNTMAWNSLGVCMAGLGRHGEARRYFEQALQRKPGDPMALYNLGTVCQSLGETAEARKQYRKCLKYAPGHVFALVRLGQLAEGEKRYAQARQYFNKAARAGDSGGLVHRNLARLSMRQGRPDEAREHLHDALLRNPQDAVALQLMARLYLDGGEDPAMAEALSRQSVALRPDLKQGWLELARALDARGHVAEAREARLRAGER
  protein production: failed

## KTFAALGSGVIGSGWIARALAHGLDVVAWDPAPGAEAALRARVANAWPALRKQGLAPGAAQERLRFVASIEECVGDADFIQESAPERLDLKLDLHARISAAARPDVLIGSSTSGLLPSEFYAEASHPERCLVGHPFNPVYLLPLVEVVGGERTAAEAVRAAMRVYESLGMRPLHVRKEVPGFIADRLLEALWREALHLVNDGVATTGEIDDAIRFGAGLRWSFMGTFLTYTLAGGNAGMRHFMAQFGPALQLPWTYLPAPELTEALIDRVVEGTAEQQGARSIAELERYRDDCLLAVLGAIRETKARHGFA
  protein production: failed

## MSLRTLVAGVDTSTQSCKVRVTDAETGELVRFGQAKHPNGTSVDPSYWWSAFQEAAEQAGGLDDVSALAVGGQQHGMVILDNQGNVIRDAMLWNDTSSAPQAAALIEKLGAAPAQDGEPEDPIARGKQRWVKAVGSSPVASYTLTKVAWVAENEPENVKKIAAICLPHDWLSWRIAGYGPVAEGEDAHLEALFTDRSDASGTIYYDAASNEYRRDLIAMVLEAAEGAKAAQSHAEAIVLPTVLGPRDAAPVKADPAIAGKNVEGGCLLAPGGGDNAMASLGLGMAVGDVSISLGTSGVAAAISENPTYDLTGAVSGFADCTGHYLPLACTINGSRILDAGRAALGVDYDELAKLAFASKPGANGITLVPYFDGERTPNRPNATATFSGMTLANTTRENLARAFVEGLLCSQRDCLELIRSLGASITRILLIGGGAKSEAIRTLAPSILGMDVTRPATDEYVAIGAARQAAWVLSGETEPPAWQLTIDGVETGEPTEAVYEAYAKARGEGHHHHHH
  protein production: not failed

## MTRVPFTQNYRWHLPLLLLVFCCSFFINNGAIFADIMESRNIITAREMVYDHNWLVPTMNGELRLEKPPLPTWIAAITEMISPDNLPLQRAMAGFAAVMLVLFFYKFATKLTDNRTYALVSSLVLCTSYNIILMGRTATWDIYCHAFMIGAIYYLYLALRQNTCKWTYFIGAGIFMGLSFLGKGPVSFYALLLPFVCAYILYYRKETQMKGKWIALAVMILIGIVLSTWWYAYIYIYHQEMASYVFHKESSSWSNHNVRSWYYYWQFFLETGVWSLLTLTTLLVPFWKKRVESSKEYLFCLSWMLLILFFLSLLPEKKTRYLLPILLPAALTMGHLFVYWIRQAKQKMPQLKDRVLYRINAYLIVVAALALPIALYLFMYREGRMGTGMFVWLVVLFLTVAVWLFRSAFKLQPFSFLMGIVALFAVAELFVMPYIGSFVSNSDPKSISATRENPELQPLPFYHSKDEVLRIELVYEAHKKIGDMDLSNKEEIIKALPFVLISQKPAELLIPDSIRKDLNLRFIDCYDNNRWAKGHKRYDSVFISNVTIVEPIKEQ
  protein production: failed

## MTQAFSRVRFIMTQPSHPGNVGSAARAIKTMGFGELVLVAPRFPDMTAQPEAVALASGALDVLERAAVHDTLEEALAPVTLAFALTTRVRDLGPPPCDIREAAGLARRHLDDTEAGVVAIVLGTERAGLTNAQIELCHRICHIPANPQYSSLNVAQALQLAAWELRYALLAGTGQSLLPASSAQQANPGAAPADGAAVQALLAHWEQALVAVGFLDPAHPKKLMPRMKHLLTRSALSRDEVDMLRGVCTAMIAPNRPK
  protein production: not failed

## EDPGDAQVVFARLDAYIRRHLQSEIEVAALAEQAHMSTRSLYALFERQLGESPRQYIRRLRLERIRACLEDPGCRVRNLTELALDFGFAHLGRFAEQYRRQFGELPSETLRRRA
  protein production: failed

## MRFRDRRHAGALLAEALAPLGLEAPVVLGLPRGGVVVADEVARRLGGELDVVLVRKVGAPGNPEFALGAVGEGGELVLMPYALRYADQSYLEREAARQRDVLRKRAERYRRVRPKAARKGRDVVLVDDGVATGASMEAALSVVFQEGPRRVVVAVPVASPEAVERLKARAEVVALSVPQDFAAVGAYYLDFGEVTDEDVEAILLEWAG
  protein production: not failed

## MASMTMTSSFLPTVSNLPANISSNSRRSLTVVKASGSENTTSLENKKQEQSMKMRRDLVFTAAAAAVCSLAKVAMADDEPKRGTEAAKKKYAPVCVTMPTAKICRN
  protein production: failed

## MAVLVTGATGFIAQWVLDCLLKENYQVIGTVRSQEKGDKLHKQFGSPSKLSFEIVKDISDTEAFEPLFKKRGKEIDIVLHMASPCHFNTSDYEKDLLIPALNGTKGVLNAIKKYGDVKKVVVTSSYAAITDMVNSADGSLVFTEKDWNPATWERCQTDAVNAYCASKKFAEQAAWEFSKETGVSLTTINPVFVFGPQKFDEDVTSQLNTSNEIINGLIHSKPGDKLEPDYHSAYVDVRDVARAHLVAFQKDTTGERLGLSNGAFNCQSILDILNEKFPQLDITKGPEPGMGDTKPGAVFDNRHSKEVLAFPFISLEQCVYDTVAQVLKKEGRLLEHHHHHH
  protein production: not failed
